Test [1] addresses full-length human CDK9 (residues 1–372) (human) (UniProt P50750).
For test [2], the target named is truncated CDK9 construct CDK9_(330) (residues 1–330) (human) (UniProt P50750).
The target of test [3] is full-length human CDK9 (residues 1–372) (human) (UniProt P50750). This is another data set of the same source.

Results on one substance are retold here after PMC3469819.

full-length human CDK9 (residues 1–372) (human), sequence (P50750 whole entry, the tested form may be a part): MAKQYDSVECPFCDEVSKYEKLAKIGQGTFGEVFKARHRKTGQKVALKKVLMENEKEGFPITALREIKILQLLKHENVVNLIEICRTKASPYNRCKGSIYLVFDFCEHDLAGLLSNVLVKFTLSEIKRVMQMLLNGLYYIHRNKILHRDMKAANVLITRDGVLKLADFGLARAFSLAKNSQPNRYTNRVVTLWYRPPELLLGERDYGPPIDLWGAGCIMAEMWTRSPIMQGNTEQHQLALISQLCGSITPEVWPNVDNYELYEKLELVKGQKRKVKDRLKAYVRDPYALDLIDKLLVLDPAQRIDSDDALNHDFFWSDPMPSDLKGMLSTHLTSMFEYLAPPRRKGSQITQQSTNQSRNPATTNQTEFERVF
truncated CDK9 construct CDK9_(330) (residues 1–330) (human), sequence (P50750 1-330): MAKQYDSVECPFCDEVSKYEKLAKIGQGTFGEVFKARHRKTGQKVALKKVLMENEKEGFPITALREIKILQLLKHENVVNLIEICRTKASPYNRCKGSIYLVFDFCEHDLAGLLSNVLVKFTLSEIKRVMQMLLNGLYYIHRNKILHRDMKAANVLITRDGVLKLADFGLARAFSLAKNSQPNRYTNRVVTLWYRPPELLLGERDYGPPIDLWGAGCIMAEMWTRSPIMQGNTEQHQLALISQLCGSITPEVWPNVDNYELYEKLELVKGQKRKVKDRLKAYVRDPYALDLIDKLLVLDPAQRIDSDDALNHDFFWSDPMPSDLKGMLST

In turn, “GST-tagged version of the human Pol II CTD (from UniProt P24928 1587-1970) (domain or fragment)” returned a K (M,app) for GST-CTD of the kinase activity of CDK9FL/cyclin T (32P incorporation into GST-CTD, fixed ATP) in test [1] of 24.3 µM. The substance also came in with a K (M,app) for GST-CTD of the kinase activity of CDK9 (330)/cyclin T (32P incorporation into GST-CTD, fixed ATP) in test [2] of 21.3 µM. The substance also gave a K (M, CTD): overall Michaelis constant for GST-CTD of CDK9FL/cyclin T, from initial rates with both GST-CTD and ATP varied in test [3] of 115 µM.
